Laboratory results: patent US6017747A, “Nucleic acids encoding a collagenase” (The Regents of the University of California, priority 1997, dated 2000)

Columns and labels:
recombinant collagenase = target: T1, recombinant collagenase (Leptuca pugilator, UniProt P00771); experiment: Inhibition of collagenolytic activity of recombinant collagenase; format: biochemical, Uca pugilator; details: recombinant enzyme
T1 construct: the mature form of the cloned collagenase (illustrated in the boxed section) has 226 amino acid residues; made in house; host or cells: Saccharomyces cerevisiae (strain AB110 or DM101α), PyFC vector
T1 sequence (P00771 1-226 V95S): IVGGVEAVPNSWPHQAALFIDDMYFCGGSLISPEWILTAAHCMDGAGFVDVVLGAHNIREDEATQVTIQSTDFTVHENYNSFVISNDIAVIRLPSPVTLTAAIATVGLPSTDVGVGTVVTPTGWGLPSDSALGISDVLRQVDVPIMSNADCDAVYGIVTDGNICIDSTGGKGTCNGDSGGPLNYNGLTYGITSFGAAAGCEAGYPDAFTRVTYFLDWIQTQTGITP
Source text: The collagenolytic activity of the recombinant collagenase was compared directly to that of the endogenous enzyme isolated from the crab hepatopancreas. The specificity and rate of collagen cleavage are similar.

[1] = single residue esters; cited from earlier work
[2] = Single residue versus peptidyl P1-Phe substrate efficiency; format: biochemical
Method: (§1) Recombinant rat trypsin was purified by published techniques. Other reagents were purchased from the following sources: TLCK treated bovine chymotrypsin (Sigma), porcine elastase (Calbiochem), bovine calf skin collagen (US Biochemical), Suc-AAPAbu-pNA (Bachem of California) and Z-GPR-Sbzl (Enzyme Systems Products). All other substrates were from Bachem Bioscience. All enzyme active site titrations, substrate calibrations, kinetic assays and collagen digestions were carried out by conventional methods. Briefly, pNA kinetic assays were monitored at 410 nm (E410 =8,480 M^-1 cm^-1) in 50 mM Tris, 100 mM NaCl, 20 mM CaCl2, pH 8.0 at 25° C. 1 to 4% DMF or 2% Me2 SO was present in the final reaction buffer. Benzylthioester kinetic assays were monitored at 324 nm (E324 =19,800 M^-1 cm^-1) in the above buffer at 25° C. with the inclusion of 250 μM dithiodipyridine (Chemical Dynamics) and 2% DMF. AMC spectrofluorimetric assays were monitored at an excitation wavelength of 380 nm and an emission wavelength of 460 nm, under conditions identical to those for pNA. Assays were done in duplicate for 5 substrate concentrations, except for Suc-AAP-Asp-pNA, for which the kcat /Km was determined using 3 substrate concentrations in duplicate. The steady state kinetic parameters were determined by non-linear regression fit to the Michaelis Menten equation. […]

[3] = Steady state kinetics versus the Suc-AAP-Xaa-pNA substrate set; format: biochemical; details: for r of correlation for log kcat or log (kcat /Km) versus P1 residue volume: Val and Ile omitted for chymotrypsin, Nva and Leu deleted for elastase; for correlation of log (kcat /Km) with π: hydrophobicity constant π
Method: Recombinant rat trypsin was purified by published techniques. Other reagents were purchased from the following sources: TLCK treated bovine chymotrypsin (Sigma), porcine elastase (Calbiochem), bovine calf skin collagen (US Biochemical), Suc-AAPAbu-pNA (Bachem of California) and Z-GPR-Sbzl (Enzyme Systems Products). All other substrates were from Bachem Bioscience. All enzyme active site titrations, substrate calibrations, kinetic assays and collagen digestions were carried out by conventional methods. Briefly, pNA kinetic assays were monitored at 410 nm (E410 =8,480 M^-1 cm^-1) in 50 mM Tris, 100 mM NaCl, 20 mM CaCl2, pH 8.0 at 25° C. 1 to 4% DMF or 2% Me2 SO was present in the final reaction buffer. Benzylthioester kinetic assays were monitored at 324 nm (E324 =19,800 M^-1 cm^-1) in the above buffer at 25° C. with the inclusion of 250 μM dithiodipyridine (Chemical Dynamics) and 2% DMF. AMC spectrofluorimetric assays were monitored at an excitation wavelength of 380 nm and an emission wavelength of 460 nm, under conditions identical to those for pNA. Assays were done in duplicate for 5 substrate concentrations, except for Suc-AAP-Asp-pNA, for which the kcat /Km was determined using 3 substrate concentrations in duplicate. The steady state kinetic parameters were determined by non-linear regression fit to the Michaelis Menten equation. Standard deviation in kcat /Km was generally less than 10%, though individual rate and binding constants varied to a greater extent. […] Kinetic parameters were plotted versus P1 residue volume and the hydrophobicity constant, π.
The Michaelis constants of the recombinant collagenase were determined for a matched set of 15 Suc-AAP-Xaa-pNA substrates, varying only in the P1 residue. […] The remaining 10 substrates Ala, Abu (2-aminobutyric acid), Nva (norvaline), Val, Nle (norleucine), Ile, Met, Orn (ornithine), Asp and Glu were selected to more fully map the specificity of crab collagenase for hydrophobic, basic and acidic residues. The substrate preference of the collagenase is quite broad. […] Acidic residues are generally poor substrates. […] This implies the existence of several distinct S1 sites or a single flexible site. […] The correlation is improved and slope essentially unchanged if only the hydrophobic residues Ala, Abu (2-aminobutyric acid), Nva (norvaline), Nle (norleucine), Leu, Met and Phe are included. […] It is unclear how the enzyme binds the neutral hydrophilic and basic residues so as to minimize the effects of charge or polarity in the transition state. Bias or insensitivity in the data set may also affect the interpretation of the correlations.
The steady state kinetic parameters of chymotrypsin and elastase versus the Suc-AAP-Xaa-pNA substrate set were determined under conditions identical to those for crab collagenase. This was necessary in order to accurately compare the activities of these different enzymes.

[4] = Single residue versus peptidyl P1-Ala substrate efficiency; format: biochemical
Method: as §1

[5] = Single residue versus peptidyl P1-Arg substrate efficiency; format: biochemical
Method: as §1

Row | Molecule | inhibition of collagenolytic activity (recombinant collagenase) | slope of correlation of log (k2 /KS) with π [1] | kcat /Km differential, single residue versus peptidyl substrate [2] | correlation for log kcat or log (kcat /Km) versus P1 residue volume [3] | correlation of Km versus volume [3] | sensitivity of log (kcat /Km) to residue volume [3] | r of correlation for log kcat or log (kcat /Km) versus P1 residue volume [3] | correlation of log (kcat /Km) with π [3] | kcat /Km differential, single residue versus peptidyl substrate [4] | kcat /Km differential, single residue versus peptidyl substrate [5]
1 | NCCc1ccc(S(=O)(=O)F)cc1 [AEBSF] | completely inhibited | – | – | – | – | – | – | – | – | –
2 | Chymotrypsin | – | 2.2 | 10,000 fold | Strong positive | tight negative correlation | twice that of collagenase | ≤ 0.95 | also correlated with π | – | –
3 | elastase: porcine elastase (Calbiochem) | – | – | – | negative | much weaker | twice that of collagenase | ≤ 0.95 | correlated well, with a slope equal and opposite that for chymotrypsin | 100,000 fold | –
4 | Trypsin: Recombinant rat trypsin purified by published techniques (protein, UniProt P00763 24-246, looked up) Anionic trypsin-2: IVGGYTCQENSVPYQVSLNSGYHFCGGSLINDQWVVSAAHCYKSRIQVRLGEHNINVLEGNEQFVNAAKIIKHPNFDRKTLNNDIMLIKLSSPVKLNARVATVALPSSCAPAGTQCLISGWGNTLSSGVNEPDLLQCLDAPLLPQADCEASYPGKITDNMVCVGFLEGGKDSCQGDSGGPVVCNGELQGIVSWGYGCALPDNPGVYTKVCNYVDWIQDTIAAN | – | – | – | – | – | – | – | – | – | 100 fold
